For this experiment, the target named is T1, Rhipicephalus microplus pseudo-aspartic peptidase wild type (Rhipicephalus microplus, UniProt A0A411AQW7 21-361).
T1 construct: RmPAP, pseudo-aspartic peptidase of Rhipicephalus microplus (GenBank MH427522); mature RmPAP (R21-K361) without the putative signal peptide M1-A20; lacks the second catalytic Asp (Pro242); Cloned into pET14b with an N-terminal His tag; the primers that fix the construct's limits are in Sup; also called RmPAPWT; RmPAP
T1 sequence: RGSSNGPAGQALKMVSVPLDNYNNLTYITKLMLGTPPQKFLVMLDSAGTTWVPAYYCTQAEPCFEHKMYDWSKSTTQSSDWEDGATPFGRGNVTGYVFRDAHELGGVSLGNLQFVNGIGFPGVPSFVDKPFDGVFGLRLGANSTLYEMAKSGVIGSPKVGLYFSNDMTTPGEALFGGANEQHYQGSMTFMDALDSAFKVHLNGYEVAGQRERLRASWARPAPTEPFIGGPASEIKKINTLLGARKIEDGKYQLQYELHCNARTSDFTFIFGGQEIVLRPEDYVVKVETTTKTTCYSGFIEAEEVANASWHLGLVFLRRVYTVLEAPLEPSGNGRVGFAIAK
Kind of experiment: SPR; Biacore T-200; bovine hemoglobin immobilised on a CM5 chip (FC 2) in acetate buffer pH 5.5, BSA on FC 1 as reference; increasing concentrations of RmPAPWT injected in 10 mM phosphate-citrate buffer, pH 4, 0.15 M NaCl, 20 uL/min; steady-state response (FC2 - FC1) fitted. As to conditions: both partners purified. On the technique in general: Surface plasmon resonance follows binding to a sensor surface in real time, without labels.

B1: bovine hemoglobin (complex)
chain 1: not shown
chain 2: not shown
notes: hemoglobin alpha chain, bovine; hemoglobin beta chain, bovine; the heme groups are not written
A word on the Kd: it is the equilibrium constant for the complex coming apart. Read a high Kd as weaker binding. As to B1, the Kd was determined as 33.5 nM.

The values above are taken from paper PMC6345952, “Novel pseudo-aspartic peptidase from the midgut of the tick Rhipicephalus microplus” (Scientific Reports, 2019).
